Laboratory results: patent US11572572B2, “A138T mutation-containing plant EPSPS mutant, and encoding gene and application thereof” (GEVOTO LLC, priority 2017, dated 2023)

How the values were obtained:
[1] = tested on: double-knockout Escherichia coli strain (EDCE); test: Growth of double-knockout E. coli (EDCE) transformed with Oryza sativa EPSPS genes in glyphosate media (Example 5); assay type: cell-based; conditions: Example 5, FIG. 1
Source text: An Escherichia coli strain transformed with the Oryza sativa EPSPS mutant I-encoding gene according to Example 1 was used as Experimental Group 1 (having only the A155(138)T mutation).
An Escherichia coli strain transformed with the Oryza sativa EPSPS mutant II-encoding gene according to Example 2 was used as Experimental Group 3 (having the G111(96)A mutation and A155(138)T mutation).
An Escherichia coli strain transformed with a wild-type Oryza sativa EPSPS-encoding gene (SEQ ID NO: 14, encoding wild-type Oryza sativa EPSPS set forth in SEQ ID NO: 5) was used as a control group.
The glyphosate resistance of the Oryza sativa EPSPS mutant I-encoding gene and the encoded Oryza sativa EPSPS mutant I in Escherichia coli, and the glyphosate resistance of the Oryza sativa EPSPS mutant II-encoding gene and the encoded Oryza sativa EPSPS mutant II in Escherichia coli were verified by detecting the growth statuses of the transformed Escherichia coli in media containing different concentrations of glyphosate (0 mM, 1 mM, 2 mM, 20 mM) (media obtained by using M9 as a basal medium and then adding certain concentrations of antibiotics Spec (Spectinomycin), Gen (Gentamycin), and Amp (Ampicillin) and different concentrations of glyphosate).
Here, the Escherichia coli strain used was an double-knockout Escherichia coli strain (Escherichia coli strain DH5a from which an EPSPS gene and a C-P Lyase gene were knocked out, named EDCE, which may be prepared by a method with reference to Chinese Patent Application No. 2016103256926).
The detection was carried out by a method well known in the art, which was briefly described below. Gene encoding Oryza sativa EPSPS mutants was synthesized by a chemical synthesis method, wherein enzymatic digestion sites (Pacl and Sbfl) were introduced at both ends of the gene. The gene were enzymatically cleaved and then ligated in the presence of ligase to an expression vector (e.g., pADV5 vector having a structure as shown in FIG. 4) subjected to the same enzymatic digestion treatment, and then were transformed into the double-knockout Escherichia coli strain. After verification, positive clones were picked out and inoculated and grown in media containing glyphosate. The growth statuses were observed.

[2] = tested on: transgenic rice seedlings; test: Glyphosate resistance of EPSPS mutants in transgenic rice sprayed with glyphosate (Example 8); assay type: in vivo, rice (Nipponbare)
Source text: The glyphosate resistance of the EPSPS mutants of the above examples in transgenic rice was detected by the following method.
Plasmids of monoclonal resistant strain comprising pADV5-EPSPS of Examples 1-4 (containing the EPSPS mutant genes) were extracted in accordance with a conventional method. They were subjected to double enzymatic digestion with Pacl and BstEII to recover small fragments, and then the small fragments were ligated, using T4 DNA ligase, to a pGVP1 vector subjected to double enzymatic digestion in the same manner, to obtain a pGVP1-EPSPS vector having a structure as shown in FIG. 8.
The pGVP1-EPSPS vector was transformed into EHA105 (Agrobacterium tumefaciens) competent cells, and single clones were picked out for colony PCR detection to obtain positive strains. Then, the positive strains were inoculated into and propagated in 1 mL of a YEP medium containing 50 μg·mL^−1 kanamycin and 50 μg·mL^−1 rifampicin, and stored at −80° C. or used in subsequent experiments.
400 ul of a strain containing the target gene vector stored at −80° C. was added to a culture dish with a solid medium containing YEP+50 μg/mL rifampicin+50 μg/mL kanamycin and cultured in the dark at 28° C. for 24 hours, and then the bacterium was added to an infection medium and adjusted to OD=0.2 as an infection solution.
Disinfection and Pre-culture: seeds of mature rice (Nipponbare) were manually dehulled. Full seeds with no bacterial plaques were selected and disinfected in accordance with the following steps: the seeds were placed in a 50 ml sterile centrifuge tube and disinfected with the added 70% ethanol in water for 30 seconds, ethanol solution was poured out, and the seeds were washed once with sterile water; 10 to 20 ml of 2.6% sodium hypochlorite solution was added to soak and disinfect the seeds for 20 minutes. The sodium hypochlorite solution was poured out, and the seeds were soaked and washed with sterile water for 6 or 7 times, for 3 minutes each time.
Induction and Subculture: the seeds were placed on and blotted with sterile filter paper, and the mature embryos were placed in an induction medium, with 12 embryos per dish. After the operation was completed, the culture dishes were sealed with parafilm and underwent culturing in the dark at 30° C. for 21 to 28 days. Callus tissue was transferred to a fresh medium and continued to be cultured for about 7 to 14 days. Spherical callus tissue with a dimension of 1 to 2 mm was taken as an infection receptor.
The callus tissue was placed into a centrifuge tube or culture cup, infected in the prepared Agrobacterium suspension added thereto for 10 minutes, and shaken several times during the period; the bacterial solution was poured out, the callus tissue was taken out and placed on sterile filter paper for absorbing the bacterial solution from its surface (for about 30 minutes); the callus tissue was placed on sterile filter paper in culture dishes and cultured in the dark at 25° C. for 2 or 3 days.
Recovery Culture: the co-cultured callus tissue was inoculated on a recovery medium and cultured in the dark at 30° C. for 5 to 7 days.
Primary Screening: the callus was transferred to screening medium 1 (51) and cultured in the dark at 30° C. for 14 days.
Secondary Screening: the callus was then transferred to screening medium 2 (S2) and cultured in the dark at 30° C. for 14 days.
Primary Differentiation: the screened resistant callus tissue was transferred to a differentiation medium and cultured for about 21 days at 30° C. under exposure to light for 19 hours.
Secondary Differentiation: new young shoots were selected and moved to a fresh differentiation medium and continued to be cultured for about 21 days.
When the new seedlings grew to about 2 cm, they were moved to a rooting medium and cultured for 3 to 4 weeks at 30° C. under exposure to light (for 16/8 h). […]

[3] = 1X dose glyphosate (1,060 g/ha), day 10 after spraying
[4] = 2X dose glyphosate (2,120 g/ha) on survivors of 1X, after another 10 days
[5] = 5X dose glyphosate (5,300 g/ha) on survivors of 2X, after additional 10 days
[6] = 20X dose glyphosate (21,200 g/ha) on survivors of 5X, after further 10 days

B1: R1: Oryza sativa EPSPS mutant I with A155(138)T mutation (SEQ ID NO: 6), encoding gene SEQ ID NO: 15 (protein)
chain: MASNAAAAAAKAEEIVLQPIREISGAVQLPGSKSLSNRILLLSALSEGTTVVDNLLNSEDVHYMLEALKALGLSVEADKVAKRAVVVGCGGKFPVEKDAKEEVQLFLGNAGTAMRPLTAAVTAAGGNATYVLDGVPRMRERPIGDLVVGLKQLGTDVDCFLGTECPPVRVKGIGGLPGGKVKLSGSISSQYLSALLMAAPLALGDVEIEIIDKLISIPYVEMTLRLMERFGVKAEHSDSWDRFYIKGGQKYKSPGNAYVEGDASSASYFLAGAAITGGTVTVQGCGTTSLQGDVKFAEVLEMMGAKVTWTDTSVTVTGPPREPYGKKHLKAVDVNMNKMPDVAMTLAVVALFADGPTAIRDVASWRVKETERMVAIRTELTKLGASVEEGPDYCIITPPEKLNITAIDTYDDHRMAMAFSLAACADVPVTIRDPGCTRKTFPNYFDVLSTFVRN
modifications: Oryza sativa EPSPS mutant with mutation A155(138)T
growth status of transformed Escherichia coli ([1]; medium containing 1 mM glyphosate): showed bacterial plaques | growth status of transformed Escherichia coli ([1]; medium containing 2 mM glyphosate): could not grow | growth status of transformed Escherichia coli ([1]; medium containing 20 mM glyphosate): could not grow | % ++&+++ (percentage of moderately and highly glyphosate resistant plants in total plants observed) [2, 3]: 58.1% | plant number with resistance + (low glyphosate resistant) [2, 3]: 8 | plant number with resistance ++ (moderately glyphosate resistant) [2, 3]: 7 | plant number with resistance +++ (highly glyphosate resistant) [2, 3]: 11 | % ++&+++ (percentage of moderately and highly glyphosate resistant plants in total plants observed) [2, 4]: 0.0% | plant number with resistance + (low glyphosate resistant) [2, 4]: 5 | plant number with resistance ++ (moderately glyphosate resistant) [2, 4]: 0 | plant number with resistance +++ (highly glyphosate resistant) [2, 4]: 0 | plant number with resistance − (non-glyphosate resistant, withered or dead) [2, 4]: 26 | survival of transformed rice seedlings (in words) ([2]; 2× and 5× glyphosate doses): all of them survived | % ++&+++ (percentage of moderately and highly glyphosate resistant plants in total plants observed) [2, 5]: 0.0% | plant number with resistance + (low glyphosate resistant) [2, 5]: 1 | plant number with resistance ++ (moderately glyphosate resistant) [2, 5]: 0 | plant number with resistance +++ (highly glyphosate resistant) [2, 5]: 0 | plant number with resistance − (non-glyphosate resistant, withered or dead) [2, 5]: 30 | % ++&+++ (percentage of moderately and highly glyphosate resistant plants in total plants observed) [2, 6]: 0.0% | plant number with resistance + (low glyphosate resistant) [2, 6]: 0 | plant number with resistance ++ (moderately glyphosate resistant) [2, 6]: 0 | plant number with resistance +++ (highly glyphosate resistant) [2, 6]: 0 | plant number with resistance − (non-glyphosate resistant, withered or dead) [2, 6]: 31 | glyphosate resistance of transformed rice seedlings (in words) ([2]; after spraying with 1× glyphosate): significantly better glyphosate resistance than that of R0
